Experimental data: doi:10.1101/330266 (bioRxiv, 2019)

B1: 306VQIVYK311 hexapeptide (peptide)
peptide: Ac-VQIVYK-NH2
B2: R2R3-G303V peptide fragment (peptide)
peptide: Ac-DNIKHVPGVGSVQIVYK-NH2
B3: R2R3-S305N peptide fragment (peptide)
peptide: Ac-DNIKHVPGGGNVQIVYK-NH2
B4: R2R3-V300I peptide fragment (peptide)
peptide: Ac-DNIKHIPGGGSVQIVYK-NH2
B5: R2R3-P301L peptide fragment (peptide)
peptide: Ac-DNIKHVLGGGSVQIVYK-NH2
B6: R2R3-P301S peptide fragment (peptide)
peptide: Ac-DNIKHVSGGGSVQIVYK-NH2

Target: the molecule itself
Experiment: thioflavin T

Binding result, binds:
B1
B2
B3
B4
B5
B6
